Legend:
[1] = target: T1, Human TNFR2-His (Sino 10417-H08H) (human, UniProt P20333 23-257); assay: SPR (Biacore T200), antibody captured on Protein A chip
T1 construct: Bought protein; also called recombinant human TNFR2 protein; not shown: His tag
T1 sequence (looked up): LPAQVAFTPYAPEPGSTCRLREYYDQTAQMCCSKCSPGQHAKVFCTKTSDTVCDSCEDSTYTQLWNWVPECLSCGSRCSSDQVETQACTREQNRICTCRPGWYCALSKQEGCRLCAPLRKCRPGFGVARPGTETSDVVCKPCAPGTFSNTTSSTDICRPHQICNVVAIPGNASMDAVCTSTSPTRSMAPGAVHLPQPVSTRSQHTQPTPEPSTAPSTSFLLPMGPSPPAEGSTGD
Protocol: Biacore was used to detect the specific binding of a test anti-TNFR2 antibody to human and cynomolgus monkey TNFR2 proteins. In this experiment, a Protein A chip was used, the time required for the chip to capture the diluted antibody was determined by manual run, so that the Rmax of the saturated binding to an antigen was 50 RU. […] The affinity of an antibody for an antigen was determined by using multi-cycle dynamics. In each cycle, an antibody was injected and then a TNFR2 protein at a gradient concentration was injected, so that the antigen and the antibody underwent binding and dissociation processes. After each cycle, the Protein A chip was regenerated with Glycine pH 1.5 (removing the protein on the chip). The affinity KD of an antibody and an antigen was fitted with BIAcore T200 analysis software.

[2] = target: T2, human TNFR2 on the surface of CHO-TNFR2 cells (human, UniProt P20333 23-461); assay: flow cytometry on CHO-TNFR2 cells; area under the MFI fold curve
T2 construct: whole, on cells
T2 sequence (looked up): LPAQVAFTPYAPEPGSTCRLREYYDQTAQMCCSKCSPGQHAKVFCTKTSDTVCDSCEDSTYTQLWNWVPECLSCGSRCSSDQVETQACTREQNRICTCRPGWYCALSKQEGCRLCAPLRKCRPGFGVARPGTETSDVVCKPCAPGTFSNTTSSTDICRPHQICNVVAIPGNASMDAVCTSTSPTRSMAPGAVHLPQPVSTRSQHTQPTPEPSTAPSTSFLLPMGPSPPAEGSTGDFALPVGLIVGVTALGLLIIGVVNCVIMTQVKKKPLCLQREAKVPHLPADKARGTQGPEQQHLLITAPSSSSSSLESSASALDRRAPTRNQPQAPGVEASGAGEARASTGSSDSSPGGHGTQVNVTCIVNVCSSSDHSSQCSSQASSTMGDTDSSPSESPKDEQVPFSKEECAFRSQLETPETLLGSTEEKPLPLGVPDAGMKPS
Protocol: The transfected full-length plasmid of human TNFR2 was purchased from Sino Biological (Cat #HG10417-UT, NCBI Ref Seq: NM_001066.2). The experiment was conducted at a cell density within 80%. The cell medium was discarded; the cells were rinsed with PBS, and digested with 1 ml trypsin for 2 minutes; the digestion was stopped with a Ham's F12 complete medium containing 10% FBS, and then a cell suspension was made. The cell suspension was counted, and then an appropriate amount of cell suspension was centrifuged at 350×g; the supernatant was discarded; a corresponding volume of blocking solution (10% FBS+PBS) at a density of 1×10⁷ cells/ml was added to resuspend the cells, and the mixture was incubated at 4° C. for 30 minutes. After the incubation, the mixture was centrifuged at 350×g to remove the supernatant, and the cells were resuspended in a staining buffer (2% FBS+PBS) to a density of 2×10⁶ cells/ml, and spread onto a 96-well plate, with 50 μl of cell suspension added to each well for later use. The antibody was diluted with PBS for 10-fold gradient dilution from the highest concentration of 20 μg/m (twice the concentration); the diluted antibody was added to the well containing 50 μl of cell suspension, and placed on a microplate shaker for shaking at 500 rpm for 1 minute, so that the antibody was fully mixed with the cells; the mixture was incubated at 4° C. for 1 h. After the incubation, the cells were washed twice with the staining buffer, with 100 μl per well, and centrifuged at 350-g for 5 minutes, and the supernatant was discarded. The PE goat anti-Human IgG Fc antibody (ebioscience, Cat #12-4998-82) was diluted 250-fold with the staining buffer, with a volume of 100 μl per well added to the washed cell wells; the mixture was mixed evenly, and stained at 4° C. for 30 minutes. After the staining, similarly, the cells were washed twice with the staining buffer; finally, the cells were resuspended in 200 μl of staining buffer; signals were detected by a flow cytometer (Thermo Attune NxT). The stronger the signal, the stronger the binding ability of an antibody to TNFR2. The binding curve of an antibody was drawn with antibody concentration as the abscissa and corresponding mean fluorescence intensity (MFI) fold as the ordinate, and fitted with four parameters (GraphPad Prism9) to calculate the EC50 value.

[3] = target: T3, human TNFR2 (Novoprotein, Cat #C830) (human, UniProt P20333 23-257, limits assumed); assay: competition ELISA, human TNFR2 coated, competitor human TNFα-Biotin
T3 construct: construct not described; also called human TNFR2 protein
T3 sequence (looked up): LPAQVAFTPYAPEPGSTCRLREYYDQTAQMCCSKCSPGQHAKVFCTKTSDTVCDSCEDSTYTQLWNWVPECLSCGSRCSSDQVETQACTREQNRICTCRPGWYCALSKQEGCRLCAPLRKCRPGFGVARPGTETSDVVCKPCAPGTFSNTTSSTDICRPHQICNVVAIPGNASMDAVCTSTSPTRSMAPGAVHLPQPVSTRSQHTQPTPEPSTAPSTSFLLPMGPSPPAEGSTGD
Protocol: (§1) 1 μg/ml human TNFR2 (Novoprotein, Cat #C830) was pre-coated with 100 μl/well […] in an ELISA plate. All the test TNFR2 antibodies were subjected to 2.5-fold gradient dilution from the highest concentration of 30 μg/ml; the diluted antibodies were mixed with 15 ng/ml human TNFα-Biotin (Acro Biosystem, Cat #TNA-H82E3) in equal volume, respectively; the resulting mixture was added to the ELISA plate at 100 μl/well, and incubated with shaking at room temperature for 2.0 hours. The plate was washed, and then a Streptavidin-HRP working solution (diluted at 1:10000) was added at 100 μl/well, and the mixture was incubated with shaking at room temperature for 40 minutes. The plate was washed again, and then the substrate TMB of HRP was added to develop colour. A stop solution was added to stop the reaction, and then a microplate reader (MD 13) was used to read the absorbance value. The inhibitory curve of an antibody was drawn with antibody concentration as the abscissa and corresponding OD value as the ordinate, and fitted with four parameters (GraphPad Prism9) to calculate the IC50 value. The smaller the IC50 value, the stronger the ability of an antibody to inhibit the binding of human TNFα to human TNFR2. The blocking effect of a humanized antibody was normalized to its corresponding human-murine chimeric antibody WT. The higher the percentage value, the better the inhibitory effect of the humanized antibody.

[4] = target: T3, human TNFR2 (Novoprotein, Cat #C830); assay: competition ELISA, competitor human TNFα-Biotin; area under the OD curve
Protocol: as §1

| Binder | Kd [1] [nM] | koff [1] [s⁻¹] | kon [1] [M⁻¹ s⁻¹] | AUC [2] | IC50 [3] [µg/mL] | AUC [4] |
| --- | --- | --- | --- | --- | --- | --- |
| 224-Hu1 (antibody, V domains shown, Humanized form of #224; also called VH8 + VL6) VH: QVQLVQSGAEVKKPGASVKVSCKASGFNNKDIYMHWVRQAPGQGLEWIGRIDPATGNTKHDPKFQDRVTMTSDTSTNTVYMELSSLRSEDTAVYYCARSPYGDFGAMDYWGQGTLVTVSS VL: DIQMTQSPSSLSASVGDRVTITCTASSSVSSNYLHWYQQKPGKAPKLWIYSTSNLPSGVPSRFSGSGSGTDFTLTISSLQPEDFATYYCHQYHRSPWTFGQGTKVEIK | 6.57 | 0.000766 | 117000 | 642 | 0.441 | 7.12 |
| 224-Hu6 (antibody, V domains shown, Humanized form of #224; also called VH8 + VL7) VH: QVQLVQSGAEVKKPGASVKVSCKASGFNNKDIYMHWVRQAPGQGLEWIGRIDPATGNTKHDPKFQDRVTMTSDTSTNTVYMELSSLRSEDTAVYYCARSPYGDFGAMDYWGQGTLVTVSS VL: DIQMTQSPSSLSASVGDRVTITCTASSSVSSNYLHWYQQKPGSSPKLWIYSTSNLPSGVPSRFSGSGSGTDFTLTISSLQPEDFATYYCHQYHRSPWTFGQGTKVEIK | 4.08 | 0.000697 | 171000 | 603 | 0.439 | 6.46 |
| 224-Hu7 (antibody, V domains shown, Humanized form of #224; also called VH9 + VL10) VH: QVQLVQSGSELKKPGASVKVSCKASGFNNKDIYMHWVRQAPGQGLEWMGRIDPATGNTKHDPKFQDKAVLSSDTSVSTAYLQISSLKAEDTAVYYCARSPYGDFGAMDYWGQGTLVTVSS VL: DIQMTQSPSSLSASVGDRVTITCTASSSVSSNYLHWYQQKPGKAPKLLIYSTSNLPSGVPSRFSGSGSGTDFTLTISSLQPEDFATYYCHQYHRSPWTFGQGTKVEIK | 5.64 | 0.000815 | 145000 | 608 | 0.561 | 7.44 |
| 224-Hu2 (antibody, V domains shown, Humanized form of #224; also called VH9 + VL7) VH: QVQLVQSGSELKKPGASVKVSCKASGFNNKDIYMHWVRQAPGQGLEWMGRIDPATGNTKHDPKFQDKAVLSSDTSVSTAYLQISSLKAEDTAVYYCARSPYGDFGAMDYWGQGTLVTVSS VL: DIQMTQSPSSLSASVGDRVTITCTASSSVSSNYLHWYQQKPGSSPKLWIYSTSNLPSGVPSRFSGSGSGTDFTLTISSLQPEDFATYYCHQYHRSPWTFGQGTKVEIK | 4.31 | 0.000686 | 159000 | 672 | 0.44 | 7.18 |
| 224-Hu3 (antibody, V domains shown, Humanized form of #224; also called VH9 + VL8) VH: QVQLVQSGSELKKPGASVKVSCKASGFNNKDIYMHWVRQAPGQGLEWMGRIDPATGNTKHDPKFQDKAVLSSDTSVSTAYLQISSLKAEDTAVYYCARSPYGDFGAMDYWGQGTLVTVSS VL: DIQMTQSPSSLSASVGDRVTITCTASSSVSSNYLHWYQQKPGKAPKLLIYSTSNLPSGVPSRFSGSGSGTDFTLTISSLQAEDAATYYCHQYHRSPWTFGQGTKVEIK | 4.1 | 0.000726 | 177000 | 675 | 0.441 | 6.34 |
| 224-Hu4 (antibody, V domains shown, Humanized form of #224; also called VH9 + VL6) VH: QVQLVQSGSELKKPGASVKVSCKASGFNNKDIYMHWVRQAPGQGLEWMGRIDPATGNTKHDPKFQDKAVLSSDTSVSTAYLQISSLKAEDTAVYYCARSPYGDFGAMDYWGQGTLVTVSS VL: DIQMTQSPSSLSASVGDRVTITCTASSSVSSNYLHWYQQKPGKAPKLWIYSTSNLPSGVPSRFSGSGSGTDFTLTISSLQPEDFATYYCHQYHRSPWTFGQGTKVEIK | 5.59 | 0.00072 | 129000 | 621 | 0.458 | 6.25 |
| 224-Hu5 (antibody, V domains shown, Humanized form of #224; also called VH9 + VL9) VH: QVQLVQSGSELKKPGASVKVSCKASGFNNKDIYMHWVRQAPGQGLEWMGRIDPATGNTKHDPKFQDKAVLSSDTSVSTAYLQISSLKAEDTAVYYCARSPYGDFGAMDYWGQGTLVTVSS VL: DIQMTQSPSSLSASVGDRVTITCTASSSVSSNYLHWYQQKPGKAPKLLIYSTSNLPSGVPSRFSGSGSGTDYSLTISSLQPEDFATYYCHQYHRSPWTFGQGTKVEIK | 4.28 | 0.000682 | 159000 | 593 | 0.528 | 6.87 |

Source: patent publication US20240109974A1 (SHANDONG SIMCERE BIOPHARMACEUTICAL, published 2024)
